Reference: patent US20260167721A1 (ABLEXIS, published 2026)
Where a chain is given by its changes, count along the chain named.

Legend:
[1] = target: T1, human CD3 (TCR/CD3 complex on the cell surface) (human, UniProt P07766 23-207; P04234 22-171; P09693 23-182); test: flow cytometry, Jurkat WT cells, 1 ug/mL
T1 construct: whole, on cells; Native CD3 on human Pan-T cells or Jurkat wild-type cells; also called CD3 on Pan-T cells; CD3 on Jurkat WT cells

[2] = target: T1, human CD3 (TCR/CD3 complex on the cell …); test: flow cytometry, Pan-T cells, 1 ug/mL
[3] = target: T1, human CD3 (TCR/CD3 complex on the cell …); test: flow cytometry, Jurkat WT cells, 10 ug/mL
[4] = target: T1, human CD3 (TCR/CD3 complex on the cell …); test: flow cytometry, Jurkat WT gMFI over Jurkat KO gMFI, 10 ug/mL
[5] = target: T1, human CD3 (TCR/CD3 complex on the cell …); test: flow cytometry, Pan-T cells, 10 ug/mL
[6] = target: T1, human CD3 (TCR/CD3 complex on the cell …); test: flow cytometry, Jurkat WT gMFI over Jurkat KO gMFI, 1 ug/mL

T1 sequence (P07766 23-207, chain 1 of 3): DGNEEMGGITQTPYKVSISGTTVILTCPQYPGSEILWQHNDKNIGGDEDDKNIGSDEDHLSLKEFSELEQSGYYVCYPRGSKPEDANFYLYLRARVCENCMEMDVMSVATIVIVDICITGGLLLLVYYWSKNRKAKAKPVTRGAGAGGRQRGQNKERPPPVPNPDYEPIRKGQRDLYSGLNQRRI
T1 sequence (P04234 22-171, chain 2 of 3): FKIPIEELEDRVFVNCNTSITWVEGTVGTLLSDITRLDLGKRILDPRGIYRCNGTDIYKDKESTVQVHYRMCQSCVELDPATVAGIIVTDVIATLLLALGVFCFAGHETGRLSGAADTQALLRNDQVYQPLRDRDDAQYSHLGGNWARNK
T1 sequence (P09693 23-182, chain 3 of 3): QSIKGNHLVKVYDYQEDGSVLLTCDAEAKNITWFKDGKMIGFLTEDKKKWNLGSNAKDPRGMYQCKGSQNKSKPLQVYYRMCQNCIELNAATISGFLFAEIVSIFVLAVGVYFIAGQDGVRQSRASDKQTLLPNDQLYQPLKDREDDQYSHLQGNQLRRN

B1: CD3 × CD33-BspAb96 (bispecific antibody)
chain 1: SYELTQPPSVSVSPGQTARITCSGDALPKKYAYWYQQKSGQAPVLVIYEDSKRPSGIPERFSGSSSGTMATLTISGAQVEDEADYYCYSTDSSGNHSWVFGCGTKLTVLGGGGSGGGGSGGGGSGGGGSEVQLVESGGGLVKPGGSLRLSCAASGFTFSSYSMNWVRQAPGKCLEWVSSVNSRGSYIYYADSVKGRFTISRDNAKDSLYLQMNSLRADDTAVYYCARDRRELLLDYWGQGTLVTVSSDKTHTCPPCPAPEFEGGPSVFLFPPKPKDTLMISRTPEVTCVVVDVSHEDPEVKFNWYVDGVEVHNAKTKPREEQYNSTYRVVSVLTVLHQDWLNGKEYKCKVSNKALPASIEKTISKAKGQPREPQVYTLPPCREEMTKNQVSLWCLVKGFYPSDIAVEWESNGQPENNYKTTPPVLDSDGSFFLYSKLTVDKSRWQQGNVFSCSVMHEALHNHYTQKSLSLSPGK
chain 2: EVQLVQSGAEVKKPGSSVKVSCKASGYTITDSNIHWVRQAPGQSLEWIGYIYPYNGGTDYNQKFKNRATLTVDNPTNTAYMELSSLRSEDTAFYYCVNGNPWLAYWGQGTLVTVSSASTKGPSVFPLAPSSKSTSGGTAALGCLVKDYFPEPVTVSWNSGALTSGVHTFPAVLQSSGLYSLSSVVTVPSSSLGTQTYICNVNHKPSNTKVDKRVEPKSCDKTHTCPPCPAPEFEGGPSVFLFPPKPKDTLMISRTPEVTCVVVDVSHEDPEVKFNWYVDGVEVHNAKTKPREEQYNSTYRVVSVLTVLHQDWLNGKEYKCKVSNKALPASIEKTISKAKGQPREPQVCTLPPSREEMTKNQVSLSCAVKGFYPSDIAVEWESNGQPENNYKTTPPVLDSDGSFFLVSKLTVDKSRWQQGNVFSCSVMHEALHNRFTQKSLSLSPGK
chain 3: DIQLTQSPSTLSASVGDRVTITCRASESLDNYGIRFLTWFQQKPGKAPKLLMYAASNQGSGVPSRFSGSGSGTEFTLTISSLQPDDFATYYCQQTKEVPWSFGQGTKVEVKRTVAAPSVFIFPPSDEQLKSGTASVVCLLNNFYPREAKVQWKVDNALQSGNSQESVTEQDSKDSTYSLSSTLTLSKADYEKHKVYACEVTHQGLSSPVTKSFNRGEC
B1 was tested. Which gMFI [1] did it give?
Its gMFI is 2370 gMFI.

What about the “% Positive” value [2] of the same binder?
Its value is 8.2%.

And the gMFI [2]?
The gMFI was 3700 gMFI.

What about the gMFI [3] of the same binder?
The gMFI was 7470 gMFI.

And the “Jurkat WT/KO (Fold)” value [4]?
Its value is 3.5 fold.

And the “% Positive” value [5]?
Its value is 95.8%.

What about the gMFI [5] of the same binder?
Its gMFI is 17900 gMFI.

What about the “Jurkat WT/KO (Fold)” value [6] of the same binder?
The value was 1.1 fold.

B2: CD3 × CD33-BspAb99 (bispecific antibody)
scFv-Fc: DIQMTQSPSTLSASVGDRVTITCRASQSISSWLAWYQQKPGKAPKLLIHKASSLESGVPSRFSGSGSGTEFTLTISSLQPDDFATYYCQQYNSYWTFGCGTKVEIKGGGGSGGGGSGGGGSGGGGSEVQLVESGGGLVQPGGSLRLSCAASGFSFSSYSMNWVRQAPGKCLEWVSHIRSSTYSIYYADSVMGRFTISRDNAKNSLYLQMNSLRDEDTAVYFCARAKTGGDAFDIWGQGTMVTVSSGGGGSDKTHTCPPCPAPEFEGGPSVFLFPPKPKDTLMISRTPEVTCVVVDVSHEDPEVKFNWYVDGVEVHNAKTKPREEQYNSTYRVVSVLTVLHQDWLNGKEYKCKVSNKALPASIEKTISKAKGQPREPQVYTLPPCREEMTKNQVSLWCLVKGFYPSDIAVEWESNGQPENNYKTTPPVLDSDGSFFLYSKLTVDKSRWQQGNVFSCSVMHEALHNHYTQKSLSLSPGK
heavy: B1 chain 2
light: B1 chain 3
notes: KiH heterodimer
B2 was tested. Which gMFI [1] did it give?
The gMFI was 1660 gMFI.

What about the “% Positive” value [2] of the same binder?
Its value is 1.2%.

What about the gMFI [2] of the same binder?
The gMFI was 1810 gMFI.

And the gMFI [3]?
The gMFI was 1670 gMFI.

What about the “Jurkat WT/KO (Fold)” value [4] of the same binder?
Its value is 1 fold.

And the “% Positive” value [5]?
The value was 1.5%.

What about the gMFI [5] of the same binder?
The gMFI was 1830 gMFI.

What about the “Jurkat WT/KO (Fold)” value [6] of the same binder?
Its value is 0.9 fold.

B3: CD3 × CD33-BspAb113 (bispecific antibody)
scFv-Fc: NFMLTQPHSVSESPGKTVTISCTRSSGSIASNYVQWYQQRPGSSPTTVIYEDNQRPSGVPDRFSGSIDSSSNSASLTISGLKTEDEADYYCQSYDSSNRVFGCGTKLTVLGGGGSGGGGSGGGGSGGGGSEVQLVESGGGLVKFGGSLRLSCAASGFTFSRYSMNWVRQAPGKCLEWVSSISSSSSYKYYADSVKGRFTISRDNAKNSLYLQMNSLRAEDTAVYYCAREGGNSHGMDVWGQGTTVTVSSGGGGSDKTHTCPPCPAPEFEGGPSVFLFPPKPKDTLMISRTPEVTCVVVDVSHEDPEVKFNWYVDGVEVHNAKTKPREEQYNSTYRVVSVLTVLHQDWLNGKEYKCKVSNKALPASIEKTISKAKGQPREPQVYTLPPCREEMTKNQVSLWCLVKGFYPSDIAVEWESNGQPENNYKTTPPVLDSDGSFFLYSKLTVDKSRWQQGNVFSCSVMHEALHNHYTQKSLSLSPGK
heavy: B1 chain 2
light: B1 chain 3
notes: KiH heterodimer
What does the source list for B3?
gMFI [1]: 10100 gMFI; % Positive [2]: 96.2%; gMFI [2]: 24900 gMFI; gMFI [3]: 16000 gMFI; Jurkat WT/KO (Fold) [4]: 5.9 fold; % Positive [5]: 99.5%; gMFI [5]: 111000 gMFI; Jurkat WT/KO (Fold) [6]: 3.9 fold

B4: CD3 × CD33-BspAb104 (bispecific antibody)
scFv-Fc: QSALTQPASVSGSPGQSITISCTGTSSDVGSYNLVSWYQQHPGKAPKLMIYEDIRRPSGVSNRFSASKSGDTASLTISGLQAEDEADYYCSSYAGSTTFAIFGCGTKLTVLGGGGSGGGGSGGGGSGGGGSEVQLVQSGAEVKKPGESLKISCKGSEYSFTTYWIAWVRQMPGKCLEWMGIIYPGDSDTTYSPSFQGQVTISADKSISIAFLQWSSLKASDTAMYYCARQGELDAFDIWGQGTMVTVSSGGGGSDKTHTCPPCPAPEFEGGPSVFLFPPKPKDTLMISRTPEVTCVVVDVSHEDPEVKFNWYVDGVEVHNAKTKPREEQYNSTYRVVSVLTVLHQDWLNGKEYKCKVSNKALPASIEKTISKAKGQPREPQVYTLPPCREEMTKNQVSLWCLVKGFYPSDIAVEWESNGQPENNYKTTPPVLDSDGSFFLYSKLTVDKSRWQQGNVFSCSVMHEALHNHYTQKSLSLSPGK
heavy: B1 chain 2
light: B1 chain 3
notes: KiH heterodimer
Which results are given for B4?
gMFI [1]: 1700 gMFI; % Positive [2]: 1.2%; gMFI [2]: 2020 gMFI; gMFI [3]: 1790 gMFI; Jurkat WT/KO (Fold) [4]: 1 fold; % Positive [5]: 1.6%; gMFI [5]: 2090 gMFI; Jurkat WT/KO (Fold) [6]: 0.8 fold

B5: CD3 × CD33-BspAb100 (bispecific antibody)
scFv-Fc: EVQLVESGGGLVKPGGSLRLSCAASGFTFSNYYMNWVRQAPGKCLERVSSISSSSNYIYYADSVKGRFTISRDNAKNSLYLQMNSLRAEDTAVYYCARDRRELPLDYWGQGTVVTVSSGGGGSGGGGSGGGGSGGGGSSYELTQPPSVSVSPGQTARITCSGDALPKKYAYWYQQKSGQAPVLVIYEDSKRPSGIPERFSGSSSGTMATLTISGAQVEDEADYYCYSTDSSGNHWVFGCGTKLTVLGGGGSDKTHTCPPCPAPEFEGGPSVFLFPPKPKDTLMISRTPEVTCVVVDVSHEDPEVKFNWYVDGVEVHNAKTKPREEQYNSTYRVVSVLTVLHQDWLNGKEYKCKVSNKALPASIEKTISKAKGQPREPQVYTLPPCREEMTKNQVSLWCLVKGFYPSDIAVEWESNGQPENNYKTTPPVLDSDGSFFLYSKLTVDKSRWQQGNVFSCSVMHEALHNHYTQKSLSLSPGK
heavy: B1 chain 2
light: B1 chain 3
notes: KiH heterodimer
Which results are given for B5?
gMFI [1]: 30000 gMFI; % Positive [2]: 99.5%; gMFI [2]: 240000 gMFI; gMFI [3]: 39600 gMFI; Jurkat WT/KO (Fold) [4]: 11.9 fold; % Positive [5]: 99.5%; gMFI [5]: 348000 gMFI; Jurkat WT/KO (Fold) [6]: 9.3 fold

B6: CD3 × CD33-BspAb98 (bispecific antibody)
scFv-Fc: NFMLTQPHSVSESPGKTVTISCTRSSGSIASNYVQWYQQRPGSSPTTVIYEDNQRPSGVPDRFSGSIDSSSNSASLTISGLKTEDEADYYCQSYDSSNRVFGCGTKLTVLGGGGSGGGGSGGGGSGGGGSEVHLVESGGGLVKPGGSLRLSCAASGFTFSRYSMNWVRQAPGKCLEWVSSISRSSSYIYYADSVKGRFTISRDNAKNSLYLQMNSLRAEDTAVYYCAREPRTLGMDYWGQGILVTVSSGGGGSDKTHTCPPCPAPEFEGGPSVFLFPPKPKDTLMISRTPEVTCVVVDVSHEDPEVKFNWYVDGVEVHNAKTKPREEQYNSTYRVVSVLTVLHQDWLNGKEYKCKVSNKALPASIEKTISKAKGQPREPQVYTLPPCREEMTKNQVSLWCLVKGFYPSDIAVEWESNGQPENNYKTTPPVLDSDGSFFLYSKLTVDKSRWQQGNVFSCSVMHEALHNHYTQKSLSLSPGK
heavy: B1 chain 2
light: B1 chain 3
notes: KiH heterodimer
With B6 as the binder, how does the gMFI [1] read?
The gMFI was 43500 gMFI.

And the “% Positive” value [2]?
The value was 99.8%.

What about the gMFI [2] of the same binder?
Its gMFI is 197000 gMFI.

And the gMFI [3]?
Its gMFI is 47700 gMFI.

What about the “Jurkat WT/KO (Fold)” value [4] of the same binder?
The value was 12.7 fold.

And the “% Positive” value [5]?
The value was 99.6%.

What about the gMFI [5] of the same binder?
Its gMFI is 278000 gMFI.

And the “Jurkat WT/KO (Fold)” value [6]?
The value was 11.2 fold.

B7: CD3 × CD33-BspAb101 (bispecific antibody)
scFv-Fc: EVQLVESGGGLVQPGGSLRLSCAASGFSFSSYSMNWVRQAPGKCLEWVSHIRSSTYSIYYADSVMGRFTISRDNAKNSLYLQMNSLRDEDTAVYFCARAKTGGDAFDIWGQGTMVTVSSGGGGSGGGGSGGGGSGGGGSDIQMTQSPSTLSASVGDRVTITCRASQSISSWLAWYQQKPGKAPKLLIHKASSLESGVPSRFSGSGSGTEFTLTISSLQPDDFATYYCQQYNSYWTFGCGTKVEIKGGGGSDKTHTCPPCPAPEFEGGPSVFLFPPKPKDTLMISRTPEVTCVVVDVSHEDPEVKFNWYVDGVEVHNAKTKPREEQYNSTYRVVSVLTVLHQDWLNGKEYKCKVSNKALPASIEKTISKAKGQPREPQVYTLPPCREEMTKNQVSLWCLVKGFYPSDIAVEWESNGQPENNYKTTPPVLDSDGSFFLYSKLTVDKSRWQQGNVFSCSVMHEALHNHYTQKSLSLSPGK
heavy: B1 chain 2
light: B1 chain 3
notes: KiH heterodimer
For B7, which gMFI [1] is on record?
The gMFI was 1780 gMFI.

What about the “% Positive” value [2] of the same binder?
The value was 1.8%.

What about the gMFI [2] of the same binder?
The gMFI was 1910 gMFI.

And the gMFI [3]?
Its gMFI is 1940 gMFI.

What about the “Jurkat WT/KO (Fold)” value [4] of the same binder?
Its value is 0.9 fold.

And the “% Positive” value [5]?
The value was 1.6%.

What about the gMFI [5] of the same binder?
Its gMFI is 2150 gMFI.

And the “Jurkat WT/KO (Fold)” value [6]?
The value was 0.8 fold.

B8: CD3 × CD33-BspAb97 (bispecific antibody)
chain 1: SYELTQPPSVSVSPGQTARITCSGDALPKKYAYWYQQKSGQAPVLVIYEDSKRPSGIPERFSGSSSGTMATLTISGAQVEDEADYYCYSTDSSGNHWVFGCGTKLTVLGGGGSGGGGSGGGGSGGGGSEVQLVESGGGLVKPGGSLRLSCAASGFTFSNYYMNWVRQAPGKCLERVSSISSSSNYIYYADSVKGRFTISRDNAKNSLYLQMNSLRAEDTAVYYCARDRRELPLDYWGQGTVVTVSSDKTHTCPPCPAPEFEGGPSVFLFPPKPKDTLMISRTPEVTCVVVDVSHEDPEVKFNWYVDGVEVHNAKTKPREEQYNSTYRVVSVLTVLHQDWLNGKEYKCKVSNKALPASIEKTISKAKGQPREPQVYTLPPCREEMTKNQVSLWCLVKGFYPSDIAVEWESNGQPENNYKTTPPVLDSDGSFFLYSKLTVDKSRWQQGNVFSCSVMHEALHNHYTQKSLSLSPGK
chain 2: B1 chain 2
chain 3: B1 chain 3
With B8 as the binder, how does the gMFI [1] read?
The gMFI was 3890 gMFI.

What about the “% Positive” value [2] of the same binder?
Its value is 66.3%.

And the gMFI [2]?
The gMFI was 9270 gMFI.

What about the gMFI [3] of the same binder?
The gMFI was 8450 gMFI.

And the “Jurkat WT/KO (Fold)” value [4]?
The value was 3.7 fold.

And the “% Positive” value [5]?
The value was 98.5%.

And the gMFI [5]?
Its gMFI is 53000 gMFI.

And the “Jurkat WT/KO (Fold)” value [6]?
Its value is 1.7 fold.

B9: CD3 × CD33-BspAb119 (bispecific antibody)
scFv-Fc: B3 scFv-Fc with L134V, V135A, F144P, S185G, K188T, A227V, G230R, N232K, S233G, H234A
heavy: B1 chain 2
light: B1 chain 3
notes: KiH heterodimer
How did the gMFI [1] turn out when B9 was run?
The gMFI was 22400 gMFI.

And the “% Positive” value [2]?
Its value is 99.8%.

And the gMFI [2]?
The gMFI was 88200 gMFI.

And the gMFI [3]?
The gMFI was 25700 gMFI.

And the “Jurkat WT/KO (Fold)” value [4]?
The value was 9 fold.

What about the “% Positive” value [5] of the same binder?
Its value is 99.7%.

What about the gMFI [5] of the same binder?
Its gMFI is 166000 gMFI.

And the “Jurkat WT/KO (Fold)” value [6]?
Its value is 7.8 fold.
